# Measured values reported in patent US20040214349A1 (MURDOCH CHILDRENS RESEARCH INSTITUTE ROYAL CHILDREN S …, published 2004).
# B1: His-tagged full-length mouse WARP expressed in 293-EBNA cells (other)
# chain: RSSHHHHHHIERGSTASDPQGDLLFLLDSSASVSHYEFSRVREFVGQLVATMSFGPGALRASLVHVGSQPHTEFTFDQYSSGQAIRDAIRVAPQRMGDTNTGLALAYAKEQLFAEEAGARPGVPKVLVWVTDGGSSDPVGPPMQELKDLGVTIFIVSTGRGNLLELLAAASAPAEKHLHFVDVDDLPIIARELRGSITDAMQPQQLHASEVLSSGFRLSWPPLLTADSGYYVLELVPSGKLATTRRQQLPGNATSWTWTDLDPDTDYEVSLLPESNVHLLRPQHVRVRTLQEEAGPERIVISHARPRSLRVSWAPALGPDSALGYHVQLGPLQGGSLERVEVPAGQNSTTVQGLTPCTTYLVTVTAAFRSGRQRALSAKACTASGARTRAPQSMRPEAGPREP
# modifications: N-linked oligosaccharide (one or more; candidate sites Asn264 and Asn359)
# notes: also called His-WARP; WARP-His
# Target: the molecule itself
# Assay: non-reducing SDS-PAGE of immunoprecipitated His-WARP
protein,measurement,value
B1,binding result,binds
